Data taken from patent publication US20260042831A1 (XENTRIA, published 2026).
Where “and” joins values, the source holds several entries; their conditions need not be identical. Equal values may be shown once.

Assays:
[1] = biological target: TNFα from cynomolgus monkey (cynomolgus monkey, UniProt P79337 77-233, limits assumed); test: ELISA, cross-species binding studies
TNFα from rat = biological target: T1, TNFα from rat (rat, UniProt P16599 80-235); test: ELISA, cross-species binding studies
T1 sequence (looked up): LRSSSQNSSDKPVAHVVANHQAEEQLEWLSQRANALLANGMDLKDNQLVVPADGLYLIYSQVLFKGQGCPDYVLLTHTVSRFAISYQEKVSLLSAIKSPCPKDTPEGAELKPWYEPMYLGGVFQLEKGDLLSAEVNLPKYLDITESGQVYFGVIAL

TNFα from dog = TNFα from dog (dog, UniProt P51742 77-233); test: ELISA, cross-species binding studies
TNFα from rhesus monkey = TNFα from rhesus monkey (rhesus monkey, UniProt P48094 77-233); test: ELISA, cross-species binding studies
FcγRI [2] = biological target: T2, FcγRI (UniProt P12314 16-288, limits assumed); test: Octet QK384, FcγRI on Ni-NTA biosensors; range stated for the batches
T2 construct: It was immobilized on Ni-NTA biosensors, which implies a His tag; The ELISA paragraph calls it 'His tab-labeled recombinant purified FcγRI'; also called CD64

His-tagged FcγRIIIa = biological target: T3, His-tagged FcγRIIIa (UniProt P08637 17-208, limits assumed); test: Octet QK384, steady-state KD from binding curves; range stated for the batches
T3 construct: His-tagged and captured on anti-penta-His biosensors; also called CD16

FcγRI [3] = biological target: T2, FcγRI; test: Octet QK384, FcγRI on Ni-NTA biosensors, 7 XTMAB-16 concentrations, 1:1 model fit

T2 sequence (P12314 16-288 limits assumed): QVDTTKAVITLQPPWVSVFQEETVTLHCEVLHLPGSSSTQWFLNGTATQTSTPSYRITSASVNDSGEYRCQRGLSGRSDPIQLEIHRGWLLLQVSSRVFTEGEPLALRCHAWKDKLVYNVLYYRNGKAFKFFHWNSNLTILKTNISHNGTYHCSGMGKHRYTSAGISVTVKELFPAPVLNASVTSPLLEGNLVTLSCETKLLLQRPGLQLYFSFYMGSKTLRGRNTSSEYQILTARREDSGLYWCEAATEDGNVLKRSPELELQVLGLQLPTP
T3 sequence (P08637 17-208 limits assumed): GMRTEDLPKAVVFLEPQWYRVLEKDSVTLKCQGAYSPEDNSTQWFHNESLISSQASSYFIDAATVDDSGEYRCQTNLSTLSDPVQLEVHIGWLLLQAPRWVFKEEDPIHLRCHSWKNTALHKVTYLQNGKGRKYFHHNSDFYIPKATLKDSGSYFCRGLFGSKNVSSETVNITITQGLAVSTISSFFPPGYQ
Sequence of TNFα from dog (P51742 77-233 limits assumed): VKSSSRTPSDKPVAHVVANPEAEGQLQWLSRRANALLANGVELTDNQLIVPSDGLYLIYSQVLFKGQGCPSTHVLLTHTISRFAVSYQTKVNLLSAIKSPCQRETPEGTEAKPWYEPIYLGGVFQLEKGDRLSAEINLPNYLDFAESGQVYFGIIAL
Sequence of TNFα from cynomolgus monkey (P79337 77-233 limits assumed): as the sequence (P51742 77-233 limits assumed) above, with K2R, E21Q, S30N, L37V, I49V, D53E, T72N, F83I, T109A, N140D counted along it
Sequence of TNFα from rhesus monkey (P48094 77-233 limits assumed): as the sequence (P51742 77-233 limits assumed) above, with K2R, E21Q, S30N, I49V, D53E, T72N, F83I, T109A, N140D counted along it

binding result [1]: no binding | binding result (TNFα from rat): no binding | binding result (TNFα from dog): no binding | binding result (TNFα from rhesus monkey): no binding | Kd (FcγRI [2]): 0.5 nM and 0.9 nM | Kd (His-tagged FcγRIIIa): 300 nM | Kd (FcγRI [3]): 0.68 nM and 0.63 nM
B1: XTMAB-16 (antibody, human IgG1, kappa)
heavy: not shown
light: DILLTQSPAILSVSPGERVSFSCRASQFVGSSIHWYQQRTNGSPRLLIKYASESMSGIPSRFSGSGSGTDFTLSINTVESEDIADYYCQQSHSWPFTFGSGTNLEVKRTVAAPSVFIFPPSDEQLKSGTASVVCLLNNFYPREAKVQWKVDNALQSGNSQESVTEQDSKDSTYSLSSTLTLSKADYEKHKVYACEVTHQGLSSPVTKSFNRGEC
notes: The general description says the antibody is sialylated with N-acetylneuraminic acid (Asn 297 in embodiments) and glycosylated at Asn 300; All batches (A-H); also called XTMB-16
